The RNAGym collection of RNA variant scans (doi:10.7554/elife.80360)

B1: HDV Ribozyme (parent)
chain: GGCCGGCAUGGUCCCAGCCUCCUCGCUGGCGCCGGCUGGGCAACAUUCCGAGGGGACCGUCCCCUCGGUAAUGGCGAAUGGGACCCA

Variants of: B1
Experiment: self-cleavage, relative activity (ratio to wild type); higher = more cleavage; co-transcriptional

Variant	self-cleavage
A45U C66U	1.02
A45U C66G	0.919
A43G A70G	0.914
C44A C63A	0.882
A45G G54C	0.65
A45C G68U	0.604
A43G U69G	0.867
A43G U69A	0.623
A45G U69G	1.21
A45G U69C	0.72
C44G G80U	0.0966
A45U C85G	0.847
A45C G76U	1.01
A43G A56U	0.688
A43G A56C	0.587
A43C G53A	0.554
A43C G53C	0.63
A43C G53U	0.425
C44A U60A	0.867
C44A U60G	0.554
U46A A78C	0.131
A43G G81U	0.138
C44A G81C	0.178
C44A G81A	0.125

Variant	self-cleavage
A43C G55A	0.511
A45U C64G	0.671
U46A A87C	0.744
A45U G68A	0.712
A43G U65G	0.575
C44U C63U	0.806
A45U U72A	0.831
A43C C49G	0.287
C44G U65G	0.688
C44G U65C	0.597
C44A U65G	0.85
C44A U65C	0.804
C44G G59A	0.636
C44U A56U	0.748
C44A G74C	0.237
C44G G55A	0.787
A45G G82U	0.475
A45C U47C	0.598
A42U U47G	0.615
C44A U46G	0.785
C44A U46A	0.677
A43C A70C	0.35
A45U A78U	0.155
A42U U72A	0.511

Variant	self-cleavage
A42U U72C	0.508
A43C C57A	0.785
C44U U79G	0.727
A43C G68U	0.264
A42U G73A	0.403
A43U C85A	0.499
A43U C85U	0.658
U46A C63A	0.499
U46A C63U	0.763
U46A A71U	0.95
U46A A71C	1.11
A43G C66G	0.404
A43G C66U	0.672
A43C C61U	0.434
A43C C61G	0.359
A43C C61A	0.306
A45U G74U	0.305
A43C C58A	0.394
A45U A87G	0.737
A45U A87U	0.734
A42U G55A	0.604
A42U G55U	0.597
A43G C58U	0.415
A43U U72C	0.155

Variant	self-cleavage
A45G U46G	0.643
U46A C66U	0.743
A42U C85A	0.415
C44A A56G	0.875
A45C C48G	0.369
C44G A77U	0.0978
U46A C85U	0.675
A45C G73A	0.528
A45C G73U	0.193
C44U C66G	0.895
C44U C66A	0.677
C44U U47A	0.743
C44U G80U	0.148
C44U G80A	0.125
A45G C66A	0.812
A45G C66U	0.92
A45G C66G	0.811
A45G C62A	0.975
A43G C85G	0.791
A45G C58A	1.18
C44G C66G	0.554
A45G C63G	0.739
A45G C63U	0.956
A45G U60G	1.31

Variant	self-cleavage
C44A A70G	0.703
C44A A70U	0.571
C44A A70C	0.465
C44A C58U	0.689
A42U G81C	0.0426
A42U G81A	0.0378
A42U U79G	0.222
A42U U79C	0.0216
A42U U79A	0.145
A45G G74A	0.517
A45G G74C	0.332
A45G G50A	0.707
A43C A78U	0.0415
A45G G81A	0.435
A42U U60C	0.554
A45C A70U	0.508
A45C A70C	0.615
A45C A70G	0.655
C44G C64U	0.686
A45C U79G	0.293
A45C U79C	0.0791
C44U G54U	0.799
C44U G54C	0.694
U46A C84G	0.68

Variant	self-cleavage
A45G A51U	0.944
C44A G55U	0.698
A43U C86G	0.325
A43U C86U	0.563
C44A G68A	0.704
A43C G50A	0.469
C44G G67C	0.755
C44A C85A	0.656
C44A C85U	0.727
C44G G73C	0.655
A45C C58U	0.831
A45C C58A	0.519
C44A C86U	1.01
C44A C86A	1.08
A45U G76U	0.652
A43G A78G	0.119
A45G G80U	0.151
A43U G73U	0.141
A45C A77G	0.534
A45C A77U	0.142
A43C G73C	0.309
A45C C61G	0.6
A43U U79A	0.122
A43U U79G	0.162

Variant	self-cleavage
A43U C62A	0.499
U46A C61U	0.61
A43U G55U	0.619
C44A A71G	0.427
A43G U47C	0.748
A45U C58A	0.539
A43U U65G	0.302
A45U G53C	0.778
C44A A78C	0.0811
U46A C75U	0.0665
U46A C75A	0.151
C44A C57U	0.582
A45G G76U	1.12
C44U G67C	0.755
A45C A51U	0.72
A43G G74A	0.724
A43U C57G	0.674
A45G C57G	1.01
A43U C75G	0.0639
A43C U72G	0.293
A43C U72A	0.151
A43U G68U	0.299
A45G U65C	1.01
